From publication PMC4089486 (Acta Crystallographica Section D: Biological Crystallography, 2014)

Target: Clostridium difficile strain 630 alanine racemase, recombinant wild type (Clostridium difficile strain 630, UniProt A0AC59G415 1-385)
Assay: SEC
Conditions: both partners purified

B1: CdAlr cleavage product, amino acids 1-271 (domain or fragment)
chain: MQKITVPTWAEINLDNLRFNLNNIKNLLEEDIKICGVIKADAYGHGAVEVAKLLEKEKVDYLAVARTAEGIELRQNGITLPILNLGYTPDEAFEDSIKNKITMTVYSLETAQKINEIAKSLGEKACVHVKIDSGMTRIGFQPNEESVQEIIELNKLEYIDLEGMFTHFATADEVSKEYTYKQANNYKFMSDKLDEAGVKIAIKHVSNSAAIMDCPDLRLNMVRAGIILYGHYPSDDVFKDRLELRPAMKLKSKIGHIKQVEPGVGISYGLK
binding result: binds
